Data: patent US7022666

Target: LIF receptor/gp130 heterodimer (rat) (UniProt O70535)
Experiment: cell-based or functional assay

Chain of UniProt O70535 (O70535 44-1093, chain 1 of 2): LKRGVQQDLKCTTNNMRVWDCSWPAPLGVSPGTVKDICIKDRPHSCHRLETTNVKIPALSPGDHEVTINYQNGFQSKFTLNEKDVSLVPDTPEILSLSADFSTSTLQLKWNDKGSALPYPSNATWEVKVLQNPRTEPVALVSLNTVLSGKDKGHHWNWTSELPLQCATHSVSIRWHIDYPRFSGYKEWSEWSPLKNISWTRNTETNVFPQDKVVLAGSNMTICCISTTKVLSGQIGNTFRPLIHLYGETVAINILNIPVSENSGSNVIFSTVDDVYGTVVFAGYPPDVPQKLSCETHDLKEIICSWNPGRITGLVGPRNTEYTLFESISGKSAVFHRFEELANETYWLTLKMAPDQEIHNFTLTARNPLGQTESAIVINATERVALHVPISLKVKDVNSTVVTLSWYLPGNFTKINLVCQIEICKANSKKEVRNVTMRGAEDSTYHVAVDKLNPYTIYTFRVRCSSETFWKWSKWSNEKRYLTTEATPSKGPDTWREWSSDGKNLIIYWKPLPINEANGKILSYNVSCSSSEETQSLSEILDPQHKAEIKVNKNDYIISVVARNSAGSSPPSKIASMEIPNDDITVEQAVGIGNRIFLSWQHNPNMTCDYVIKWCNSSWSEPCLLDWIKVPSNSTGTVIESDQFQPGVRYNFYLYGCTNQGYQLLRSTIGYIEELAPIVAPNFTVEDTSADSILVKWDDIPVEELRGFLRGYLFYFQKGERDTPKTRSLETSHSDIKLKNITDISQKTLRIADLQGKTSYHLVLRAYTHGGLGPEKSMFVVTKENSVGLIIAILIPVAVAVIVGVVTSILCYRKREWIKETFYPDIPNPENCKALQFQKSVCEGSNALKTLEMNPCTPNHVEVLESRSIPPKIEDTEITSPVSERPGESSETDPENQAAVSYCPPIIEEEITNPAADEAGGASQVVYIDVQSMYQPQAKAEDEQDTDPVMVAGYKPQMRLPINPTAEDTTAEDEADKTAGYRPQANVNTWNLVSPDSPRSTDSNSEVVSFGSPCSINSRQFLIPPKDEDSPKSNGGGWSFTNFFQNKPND
Chain of UniProt O70535 (P40190 23-918, chain 2 of 2, further chain): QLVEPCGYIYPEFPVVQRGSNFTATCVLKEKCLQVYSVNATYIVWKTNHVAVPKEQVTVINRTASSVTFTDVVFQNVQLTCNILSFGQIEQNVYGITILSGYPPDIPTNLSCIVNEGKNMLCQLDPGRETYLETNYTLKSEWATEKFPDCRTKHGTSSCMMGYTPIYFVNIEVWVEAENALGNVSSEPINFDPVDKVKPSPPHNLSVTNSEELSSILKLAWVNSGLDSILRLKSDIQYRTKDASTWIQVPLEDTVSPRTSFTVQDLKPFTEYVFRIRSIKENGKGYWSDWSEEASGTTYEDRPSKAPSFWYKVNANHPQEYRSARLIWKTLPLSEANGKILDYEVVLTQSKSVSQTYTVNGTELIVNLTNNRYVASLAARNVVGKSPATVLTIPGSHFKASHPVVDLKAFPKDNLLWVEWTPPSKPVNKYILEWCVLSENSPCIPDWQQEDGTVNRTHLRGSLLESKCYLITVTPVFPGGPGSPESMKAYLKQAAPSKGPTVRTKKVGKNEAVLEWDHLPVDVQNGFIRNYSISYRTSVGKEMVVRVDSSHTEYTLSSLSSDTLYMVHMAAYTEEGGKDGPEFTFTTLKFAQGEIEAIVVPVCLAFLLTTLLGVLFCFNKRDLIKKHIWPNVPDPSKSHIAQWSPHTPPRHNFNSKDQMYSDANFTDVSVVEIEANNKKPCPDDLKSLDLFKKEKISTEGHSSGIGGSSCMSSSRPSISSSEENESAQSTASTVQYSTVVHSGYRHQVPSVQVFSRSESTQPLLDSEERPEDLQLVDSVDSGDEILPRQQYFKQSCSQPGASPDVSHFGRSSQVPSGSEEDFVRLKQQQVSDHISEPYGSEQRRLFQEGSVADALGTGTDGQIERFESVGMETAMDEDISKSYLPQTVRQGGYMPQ

“recombinant leukemia inhibitory factor (ligand)” showed a conversion of metanephric mesenchyme into epithelia (lowest active dose) of 0.2 nM.
